US20220040234A1 (JUVENTAS CELL THERAPY, published 2022)

Target: T1, CD19 on the CD19-positive human leukemia cell line Nalm-6 (human, UniProt P15391 20-556)
T1 sequence (looked up): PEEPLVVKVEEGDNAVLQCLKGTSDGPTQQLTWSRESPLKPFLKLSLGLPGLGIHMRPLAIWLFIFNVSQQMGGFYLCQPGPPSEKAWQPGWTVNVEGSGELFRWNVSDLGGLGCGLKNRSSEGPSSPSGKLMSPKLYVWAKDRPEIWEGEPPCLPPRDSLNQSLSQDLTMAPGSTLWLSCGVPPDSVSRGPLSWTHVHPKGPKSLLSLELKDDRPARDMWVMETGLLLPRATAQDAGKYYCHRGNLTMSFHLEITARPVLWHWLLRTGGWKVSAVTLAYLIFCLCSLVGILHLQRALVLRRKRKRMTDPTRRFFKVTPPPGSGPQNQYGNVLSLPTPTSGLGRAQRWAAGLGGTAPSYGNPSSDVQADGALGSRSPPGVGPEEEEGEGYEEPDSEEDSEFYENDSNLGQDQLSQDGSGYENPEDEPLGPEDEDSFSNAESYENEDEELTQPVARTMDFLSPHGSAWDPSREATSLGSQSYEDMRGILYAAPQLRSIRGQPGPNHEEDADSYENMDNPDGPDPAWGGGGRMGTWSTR
Experiment: cell-based or functional assay

B1: CD19-targeted chimeric antigen receptor (CAR) of SEQ ID NO. 1, expressed on the surface of CNCT19 cells (other)
chain: GSDIVLTQSPKFMSTSVGDRVSVTCKASQNVGTNVAWYQQKPGQSPKPLIYSATYRNSGVPDRFTGSGSGTDFTLTITNVQSKDLADYFCQQYNRYPYTSGGGTKLEIKRGGGGSGGGGSGGGGSQVQLQQSGAELVRPGSSVKISCKASGYAFSSYWMNWVKQRPGQGLEWIGQIYPGDGDTNYNGKFKGQATLTADKSSSTAYMQLSGLTSEDSAVYFCARKTISSVVDFYFDYWGQGTTLTVSSEFTTTPAPRPPTPAPTIASQPLSLRPEACRPAAGGAVHTRGLDFACDIYIWAPLAGTCGVLLLSLVITLYCKRGRKKLLYIFKQPFMRPVQTTQEEDGCSCRFPEEEEGGCELRVKFSRSADAPAYQQGQNQLYNELNLGRREEYDVLDKRRGRDPEMGGKPRRKNPQEGLYNELQKDKMAEAYSEIGMKGERRRGKGHDGLYQGLSTATKDTYDALHMQALPPR
IL-6 secreted by CNCT19 cells after 24 h co-culture with Nalm-6 target cells, effector/target ratio 2:1: 32.2 pg/mL | INF-γ secreted by CNCT19 cells after 24 h co-culture with Nalm-6 target cells, effector/target ratio 2:1: 6190 pg/mL | residual rate of target cells (Nalm-6) after 24 h co-culture with CNCT19 cells, effector/target ratio 1:2, flow cytometry: 2.8% | residual rate of target cells (Nalm-6) after 24 h co-culture with CNCT19 cells, effector/target ratio 2:1, flow cytometry: 1.1%
